Residue numbers refer to the chain shown, from its start. Each block holds one binder with its values, some of them ahead of it.
What was measured:
[1] = molecular target: T1, rhesus monkey ERBB3 His tag, monomeric (rhesus monkey (Macaca mulatta), UniProt P21860 20-643 (human entry), limits assumed); assay: SPR (Biacore), captured IgG, monomeric ERBB3-His analyte
T1 chain: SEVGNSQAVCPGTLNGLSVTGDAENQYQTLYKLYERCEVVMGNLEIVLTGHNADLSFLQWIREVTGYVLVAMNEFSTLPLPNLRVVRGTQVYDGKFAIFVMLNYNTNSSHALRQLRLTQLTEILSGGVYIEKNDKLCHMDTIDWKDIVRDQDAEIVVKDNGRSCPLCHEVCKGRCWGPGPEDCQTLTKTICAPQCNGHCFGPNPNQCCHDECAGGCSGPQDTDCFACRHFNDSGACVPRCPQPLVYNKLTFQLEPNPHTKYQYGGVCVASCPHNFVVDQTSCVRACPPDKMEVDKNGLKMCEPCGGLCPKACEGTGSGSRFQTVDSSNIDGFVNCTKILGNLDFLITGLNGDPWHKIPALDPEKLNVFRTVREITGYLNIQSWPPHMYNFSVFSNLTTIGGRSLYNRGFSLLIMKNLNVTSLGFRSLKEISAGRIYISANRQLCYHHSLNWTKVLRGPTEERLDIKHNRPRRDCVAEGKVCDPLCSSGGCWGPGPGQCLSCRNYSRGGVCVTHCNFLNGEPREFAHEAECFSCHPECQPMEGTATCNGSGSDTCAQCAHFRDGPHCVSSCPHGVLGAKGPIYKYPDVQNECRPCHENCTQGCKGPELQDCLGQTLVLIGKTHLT

[2] = molecular target: T2, human ERBB3 His tagged, monomeric (human, UniProt P21860 20-643, biotinylated in the Alphascreen assays (sites not given)); assay: Alphascreen competition in solution, competitor h24C05 IgG1null, biotinylated human ERBB3-His
T2 construct: Used unbiotinylated as Biacore analyte and biotinylated in Alphascreen; treated as one molecule; also called human ERBB3-His (Acrobiosystems); biotinylated monomeric human ERBB3
Experimental: The AlphaScreen assay (Perkin Elmer) was performed in a 25 μl final volume in 384-well white microtiter plates (Greiner). The reaction buffer contained 1×PBS pH 7.3 (Oxoid, Cat. nr. BR0014G) and 0.05% (v/v) Tween® 20 (Sigma, Cat. nr. P9416). Purified IgG samples were titrated in three fold serial dilutions starting at 100 nM final concentration and incubated with biotinylated human ERBB3-His (Acrobiosystems) at 1 nM final concentration for 20 minutes at room temperature. The parental IgG and the anti-human IgG1 Acceptor beads at were added and the mix was incubated for 1 hour at room temperature. Followed by addition of the Streptavidin Donor beads and incubation for 30 minutes at room temperature. The emission of light was measured in the EnVision multilabel plate reader (Perkin Elmer) and analysed using the EnVision manager software. Values were reported as Counts Per Second (CPS) and corrected for crosstalk.

[3] = molecular target: T2, human ERBB3 His tagged, monomeric; assay: SPR (Biacore)
Experimental: Affinity (KD) of purified IgGs was determined via SPR with antigen in-solution on a Biacore® 3000 (GE). A mouse anti-human antibody (CH1 specific) was immobilized on a CM5 Sensor Chip to a level of 2000 RU in acetate buffer at pH 4.5 using amine coupling following the Wizard instructions for two channels. One channel was used for background signal correction. The standard running buffer HBS-EP pH 7.4 was used. Regeneration was performed with a single injection of 10 μl of 10 mM Glycine at pH 1.5 at […]. IgG samples were injected for 2 minutes at 50 nM at 30 μl/min followed by an off-rate of 60 seconds. The monomeric antigen (human ERBB3 His tagged or rhesus monkey ERBB3 His tag) was injected in two fold serial dilutions from 3 nM down to 0.2 nM, for 2 minutes at 30 μl/min followed by an off-rate of 300 seconds. The obtained sensorgrams were analysed using the Biacore® 3000 evaluation (BlAevaluation) software. The KD was calculated by simultaneous fitting of the association and dissociation phases to a 1:1 Langmuir binding model.

Kd [1]: 0.69 nM
koff [1]: 0.0074 s⁻¹
kon [1]: 1.1e+07 M⁻¹ s⁻¹
B1: 09D12 IgG1null (antibody, V domains shown)
VH: QVQLVESGGGLVKPGGSLRLSCAASGFTFSDYGMSWIRQAPGKGLEWVSTISDGGSYTYYADSVKGRFTISRDNAKNSLYLQMNSLRAEDTAVYYCAREYGDYDGFDYWGQGTLVTVSS
VL: DIQMTQSPSSLSASVGDRVTITCRASQSISSYLNWYQQKPGKAPKLLIYAASSLDSGVPSRFSGSGSGTDFTLTISSLQPEDFATYYCLQYDSTPLTFGGGTKVEIK
notes: Human IgG1null and human Ckappa

IC50 (read off the curve) [2]: ~5 nM
fold loss of KD against clone MH5 [3]: ~2 fold
B2: TTP IgG1null (antibody, V domains shown)
VH: B1 VH with G54S, Y57T, T58I
VL: B1 VL with D55Q
notes: Designer clone; Human IgG1null and human Ckappa; also called Total Theoretically Possible clone
